Experimental data as given in the supplement of paper PMC6757056.
± gives the standard deviation of the averaged measurements.

B1: library; a variant is named by its letters at N, in order (parent)
chain: GCUGUCACCGAGAAACUGUGAAGUAUAUCUUAAACCUGGGCACUUAAAAGAUAUAUGGAGUUAGUAGUGCAACCUGCUCGGUCUGAUGAGUCCNNNNNNGGACGAAACAGC

Tests used:
cyclic di-GMP [1] = variants of: B1; assay: FACS-Seq fitted mean relative fluorescence mCherry/BFP without ligand (log10 relative fluorescence); HEK293T; ligand: cyclic di-GMP (c-di-GMP-II aptamer); higher = higher reporter protein expression; settings: ligand present: no
In short: (§1)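 Lentivirally transduced HEK293T libraries carried an mCherry reporter with the ribozyme switch and an EF1α-BFP marker. Transduced cells were enriched, then incubated with or without ligand for 48 h and sorted into 6 bins by mCherry/BFP. Genomic DNA from each bin was PCR-amplified, barcoded and sequenced on MiSeq. Fluorescence was the fitted normal mean of log10(mCherry/BFP) bin counts, scaled to five spiked-in control ribozymes.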

cyclic di-GMP [2] = variants of: B1; assay: normalized RNA/DNA level without ligand (relative to sTRSVctl = 100) (log10 (% of sTRSVctl)); HEK293T; ligand: cyclic di-GMP (c-di-GMP-II aptamer); higher = less ribozyme self-cleavage, higher mRNA level; settings: reporter: mCherry (pCS4076), ligand present: no
In short: (§2)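 Ribozyme switch library plasmids linked to reporters were introduced into HEK293T cells at 4 µg per 6-well well, with ligand, if any, added 1 h before. Total RNA was extracted with EDTA 72 h later, reverse-transcribed, amplified, barcoded and sequenced. RNA level was computed from RNA over DNA reads relative to a spiked-in non-cleaving sequence or the top sequences, then scaled and log-transformed. The top set was 25 sequences, values were ×100 and log10, and the cutoff was ≥100 DNA reads.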

cyclic di-GMP [3] = variants of: B1; assay: FACS-Seq fitted mean relative fluorescence mCherry/BFP with ligand (log10 relative fluorescence); HEK293T; ligand: cyclic di-GMP (c-di-GMP-II aptamer); ligand concentration (+) FACS-Seq: 1 mM; higher = higher reporter protein expression; settings: ligand present: yes
In short: as §1

cyclic di-GMP [4] = variants of: B1; assay: normalized RNA/DNA level with ligand (relative to sTRSVctl = 100) (log10 (% of sTRSVctl)); HEK293T; ligand: cyclic di-GMP (c-di-GMP-II aptamer); ligand concentration (+) RNA-Seq: 1 mM; higher = less ribozyme self-cleavage, higher mRNA level; settings: reporter: mCherry (pCS4076), ligand present: yes
In short: as §2

Variant	FACS-Seq fitted mean (log10) (cyclic di-GMP [1])	normalized RNA/DNA level without ligand (log10) (cyclic di-GMP [2])	FACS-Seq fitted mean (log10) (cyclic di-GMP [3])	normalized RNA/DNA level with ligand (log10) (cyclic di-GMP [4])
ACUGGA	-0.72 ± 0.0076	1.39 ± 0.091	-0.5113 ± 0.0047	1.59 ± 0.087
AACCCU	0.095 ± 0.16	1.69 ± 0.032	0.195 ± 0.28	1.84 ± 0.082
CACGUG	-0.341 ± 0.18	1.67 ± 0.019	-0.148 ± 0.21	1.84 ± 0.085
CUUGAA	-0.585 ± 0.066	1.35 ± 0.11	-0.291 ± 0.046	1.55 ± 0.086
UUCGGC	-0.553 ± 0.015	1.81 ± 0.029	-0.447 ± 0.062	1.9 ± 0.086
CCGAAA	-0.628 ± 0.032	1.31 ± 0.12	-0.282 ± 0.0032	1.53 ± 0.1
GUUAAG	-0.00319 ± 0.05	1.55 ± 0.05	0.189 ± 0.031	1.72 ± 0.098
ACGUGA	-0.228 ± 0.016	1.33 ± 0.052	-0.0284 ± 0.061	1.54 ± 0.096
GAAGCA	-0.476 ± 0.078	1.8 ± 0.082	-0.329 ± 0.2	1.88 ± 0.15
CCAGUA	-0.229 ± 0.044	1.5 ± 0.092	0.134 ± 0.047	1.73 ± 0.12
AUAACG	-0.0695 ± 0.081	1.58 ± 0.027	0.0722 ± 0.12	1.76 ± 0.12
ACAAUU	-0.5008 ± 0.0033	1.32 ± 0.093	-0.2 ± 0.0047	1.52 ± 0.089
ACGUAA	-0.0329 ± 0.12	1.43 ± 0.079	0.314 ± 0.082	1.63 ± 0.087
UGCAAU	-0.335 ± 0.12	1.66 ± 0.045	-0.151 ± 0.047	1.81 ± 0.089
UAACGC	-0.0408 ± 0.21	1.66 ± 0.04	0.122 ± 0.082	1.79 ± 0.17
ACAACU	-0.512 ± 0.13	1.57 ± 0.037	-0.23 ± 0.091	1.76 ± 0.13
AAUGGA	-0.46 ± 0.012	1.36 ± 0.11	-0.114 ± 0.0052	1.55 ± 0.066
CUGUCA	-0.00992 ± 0.023	1.52 ± 0.13	0.247 ± 0.011	1.68 ± 0.13
UAUAGA	-0.453 ± 0.17	1.65 ± 0.021	-0.265 ± 0.034	1.81 ± 0.15
GAGUUG	-0.0245 ± 0.095	1.8 ± 0.04	0.211 ± 0.021	1.92 ± 0.12
CGUGCG	-0.833 ± 0.015	1.8 ± 0.02	-0.561 ± 0.012	1.83 ± 0.11
CGUAAA	-0.605 ± 0.042	1.23 ± 0.081	-0.386 ± 0.039	1.34 ± 0.11
GUACGC	-0.788 ± 0.17	1.77 ± 0.056	-0.516 ± 0.067	1.88 ± 0.091
GCAUAG	-0.627 ± 0.0092	1.44 ± 0.085	-0.39 ± 0.049	1.66 ± 0.093

Variant	FACS-Seq fitted mean (log10) (cyclic di-GMP [1])	normalized RNA/DNA level without ligand (log10) (cyclic di-GMP [2])	FACS-Seq fitted mean (log10) (cyclic di-GMP [3])	normalized RNA/DNA level with ligand (log10) (cyclic di-GMP [4])
AGAGGA	-0.441 ± 0.0074	1.4 ± 0.11	-0.212 ± 0.025	1.56 ± 0.11
ACCGAA	-0.328 ± 0.091	1.44 ± 0.08	-0.063 ± 0.13	1.62 ± 0.12
UAACUC	-0.459 ± 0.11	1.78 ± 0.016	-0.294 ± 0.11	1.88 ± 0.085
GAGCAG	-0.832 ± 0.019	1.9 ± 0.058	-0.596 ± 0.16	1.95 ± 0.13
GCUAGA	-0.35 ± 0.031	1.49 ± 0.043	-0.116 ± 0.03	1.67 ± 0.099
CACACA	-0.628 ± 0.032	1.45 ± 0.11	-0.354 ± 0.056	1.64 ± 0.089
GUGCCG	-0.423 ± 0.023	1.828 ± 0.017	-0.15 ± 0.011	1.92 ± 0.11
GUUAGG	-0.197 ± 0.021	1.56 ± 0.061	0.171 ± 0.057	1.72 ± 0.076
CGAGAA	0.00961 ± 0.085	1.35 ± 0.15	0.126 ± 0.031	1.55 ± 0.037
CAUCUC	-0.977 ± 0.064	1.74 ± 0.051	-0.802 ± 0.028	1.86 ± 0.11
GGGGAC	0.068 ± 0.1	1.65 ± 0.027	0.307 ± 0.041	1.8 ± 0.17
CCACUU	-0.246 ± 0.072	1.5 ± 0.069	-0.0246 ± 0.1	1.69 ± 0.078
UGAACG	-0.401 ± 0.086	1.74 ± 0.033	-0.0168 ± 0.22	1.84 ± 0.11
UCAGCG	-0.403 ± 0.12	1.83 ± 0.077	-0.141 ± 0.05	1.88 ± 0.099
UUGGAA	-0.145 ± 0.025	1.61 ± 0.12	0.122 ± 0.11	1.78 ± 0.081
GUCAAU	-0.201 ± 0.12	1.63 ± 0.034	0.152 ± 0.028	1.78 ± 0.087
ACCAAC	-0.0269 ± 0.12	1.6 ± 0.048	0.111 ± 0.07	1.76 ± 0.085
UCGGAA	-0.484 ± 0.069	1.34 ± 0.14	-0.286 ± 0.048	1.49 ± 0.11
GUCACG	-0.35 ± 0.017	1.64 ± 0.028	-0.131 ± 0.21	1.84 ± 0.085
UGUACU	-0.0524 ± 0.051	1.76 ± 0.05	0.296 ± 0.04	1.87 ± 0.094
GUUCGA	-0.345 ± 0.023	1.6 ± 0.018	0.045 ± 0.055	1.75 ± 0.12
CUGUUA	-0.289 ± 0.046	1.33 ± 0.091	0.158 ± 0.13	1.58 ± 0.084
UACUAU	-0.131 ± 0.0047	1.67 ± 0.051	0.0664 ± 0.13	1.83 ± 0.15
CAAUGU	0.349 ± 0.071	1.75 ± 0.019	0.4491 ± 0.001	1.87 ± 0.11

Variant	FACS-Seq fitted mean (log10) (cyclic di-GMP [1])	normalized RNA/DNA level without ligand (log10) (cyclic di-GMP [2])	FACS-Seq fitted mean (log10) (cyclic di-GMP [3])	normalized RNA/DNA level with ligand (log10) (cyclic di-GMP [4])
CCAAAC	-0.366 ± 0.047	1.6 ± 0.019	-0.0651 ± 0.082	1.75 ± 0.14
GCUGCG	-1.43 ± 0.31	1.789 ± 0.016	-1.28 ± 0.14	1.87 ± 0.13
GUAAAU	-0.979 ± 0.044	1.6 ± 0.051	-0.774 ± 0.011	1.76 ± 0.084
GUGGCC	0.168 ± 0.017	1.86 ± 0.033	0.366 ± 0.0082	1.97 ± 0.047
CGGGUG	-0.608 ± 0.14	1.62 ± 0.026	-0.7531 ± 0.0033	1.82 ± 0.12
ACAAUA	-0.5113 ± 0.0047	1.33 ± 0.094	-0.23 ± 0.047	1.55 ± 0.14
GACUUA	-0.438 ± 0.043	1.5846 ± 6e-05	-0.219 ± 0.05	1.76 ± 0.1
CGGCUA	-0.523 ± 0.084	1.33 ± 0.088	-0.355 ± 0.014	1.46 ± 0.18
GACGAU	-0.37 ± 0.031	1.59 ± 0.021	-0.0677 ± 0.044	1.74 ± 0.14
GGUAUC	-0.466 ± 0.023	1.63 ± 0.018	-0.193 ± 0.022	1.79 ± 0.12
AGUAGA	-0.549 ± 0.05	1.36 ± 0.12	-0.22 ± 0.075	1.56 ± 0.086
CUCUAG	0.319 ± 0.13	1.764 ± 0.015	0.4467 ± 0.0016	1.83 ± 0.11
GAGACU	-0.22 ± 0.13	1.791 ± 0.013	-0.00318 ± 0.073	1.87 ± 0.12
GCGACG	-0.315 ± 0.099	1.55 ± 0.096	-0.216 ± 0.13	1.73 ± 0.076
AGAACU	-0.833 ± 0.11	1.68 ± 0.031	-0.561 ± 0.02	1.82 ± 0.11
GAUGGA	-0.376 ± 0.014	1.42 ± 0.14	-0.11 ± 0.031	1.61 ± 0.097
UUAUAU	-0.127 ± 0.066	1.68 ± 0.0031	0.0702 ± 0.1	1.8 ± 0.081
AGAAUU	0.202 ± 0.13	1.65 ± 0.072	0.346 ± 0.074	1.8 ± 0.12
UCGGAG	-0.311 ± 0.011	1.54 ± 0.088	0.0865 ± 0.03	1.72 ± 0.08
CACAAA	-0.504 ± 0.031	1.24 ± 0.14	-0.278 ± 0.055	1.46 ± 0.12
ACAGAU	-0.584 ± 0.025	1.39 ± 0.072	-0.289 ± 0.018	1.54 ± 0.096
GUGUGC	-0.9793 ± 0.0011	1.4 ± 0.12	-0.724 ± 0.0079	1.63 ± 0.09
UGAUGU	-0.179 ± 0.057	1.63 ± 0.052	0.187 ± 0.058	1.84 ± 0.089
